Patent publication US20020142457A1, “Cell having the potentiality of differentiation into cardiomyocytes” (priority 1999, published 2002)
Ends that are not written are not given here.

How the values were obtained:
[1] = system: Nkx2.5/Csx and GATA4 co-forced expressing bone marrow cells (BMSC-Nkx2.5-GATA4); test: Quantitative PCR of genes expressed in myotubes from BMSC-Nkx2.5-GATA4; type: cell-based, mouse; conditions: BMSC-Nkx2.5-GATA4, 5-aza-C 3 μM, cytokine 10 ng/ml
Excerpt: From the myotubes thus obtained, RNAs were collected and genes expressed in the myotubes were subjected to quantitative PCR analysis using the synthetic oligonucleotides represented by SEQ ID NOS:71 to 78.

[2] = system: mouse bone marrow-derived pluripotent stem cells (BMSC); test: Differentiation of BMSC into myotubes, phase-contrast microscope; type: cell-based; conditions: 5-aza-C 3 μM in all dishes, cytokine 10 ng/ml, four weeks after addition of 5-aza-C
Method: The mouse bone marrow-derived pluripotent stem cells (BMSC) having the potential to differentiate into cardiomyocytes were plated into 60-mm culture dishes and 60 mm fibronectin-coated dishes (Becton Dickinson) at a density of 2×10^4 cells/ml and cultured at 33° C. in a 5% CO2-incubator.
On the next day, 5-aza-C was added to each culture medium in a final concentration of 3 μM, followed by culturing with the following 3 different treatments, with addition of PDGF (culture dish A), both PDGF and retinoic acid (culture dish B) or without addition of any compound (culture dish C) (final concentration: PDGF, 10 ng/ml; retinoic acid, 10^−9 M).
On the next day, the medium was replaced with a fresh medium to remove 5-aza-C therefrom. Then, PDGF was added to the culture dish A until the final concentration of PDGF came to be 10 ng/ml, while PDGF and retinoic acid were added to the culture dish B until the final concentrations of PDGF and retinoic acid came to be 10 ng/ml and 10^−9 M, respectively. Two and four days thereafter, the medium was replaced and the PDGF or retinoic acid was further added.
As a result, about 30% of the cells in the culture dish containing 5-aza-C alone differentiated into myotubes, while about 40% of the cells in the culture dish containing PDGF and about 50% of the cells in the culture dish containing PDGF together with retinoic acid differentiated into myotubes. In the three groups of the fibronectin-coated dishes, the ratio of the cells differentiated into myotubes was about 10% higher than in the three groups of the culture dishes.
RNAs were collected from the myotubes thus obtained. And genes expressed in the myotubes were analyzed with quantitative PCR analysis using the synthetic oligonucleotides represented by SEQ ID NOS:71 to 78. As a result, PDGF or retinoic acid promoted the expression of MyoD and fTnI genes relating to a skeletal muscle but not cTnI or ANP specifically relating to a myocardium. Next, mouse bone marrow-derived pluripotent stem cells (BMSC) having the potential to differentiate into cardiomyocytes were inoculated in a 60-mm culture dish at a density of 2×10^4 cells/ml and cultured using an incubator at 33° C. under 5% of CO2.
On the next day, 5-aza-C was added to the liquid culture medium to give a final concentration of 3 μM. Furthermore, five treatments differing from each other were performed by adding FGF-8 to give a final concentration of 10 ng/ml (culture dish D); adding ET-1 to give a final concentration of 10 ng/ml (culture dish E); adding a midkine to give a final concentration of 10 ng/ml (Culture dish F); adding BMP4 to give a final concentration of 10 ng/ml (culture dish G); and adding no compound (culture dish H), followed by culturing.
On the next day, the medium was replaced by a fresh medium to eliminate 5-aza-C therefrom. Then, FGF-8 was added to the culture dish D to give a final concentration of 10 ng/ml; ET-1 was added to the culture dish E to give a final concentration of 10 ng/ml; the midkine was added to the culture dish F to give a final concentration of 10 ng/ml; and BMP4 was added to the culture dish G to give a final concentration of 10 ng/ml, followed by culturing. Two and four days thereafter, the medium was replaced and the FGF-8, ET-1, midkine or BMP4 was further added.
As a result, about 30% of the cells in the culture dish containing 5-aza-C alone differentiated into myotubes, while about 50% of the cells in the culture dishes containing FGF-8, ET-1, midkine or BMP4 differentiated into myotubes respectively.

[3] = system: bone marrow cell (BMSC-MesP1); test: Quantitative PCR of genes expressed in myotube-like cells from BMSC-MesP1; type: cell-based, mouse; conditions: BMSC-MesP1, 5-aza-C 3 μM, cytokine 10 ng/ml
Method: Next, RNA was recovered from the thus obtained myotube-like cells, and genes expressing in the myotube-like cells were analyzed by quantitative PCR using the synthetic oligonucleotides shown in SEQ ID NOS:71 to 78. As a result, expression of ANP as a gene specific for a myocardium was accelerated by the forced expression of MesP1.

| Molecule | expression of cTnI and ANP promoted by forced expression of Nkx2.5/Csx and GATA4 [1] | cells differentiated into myotubes [2] | expression of ANP accelerated by the forced expression of MesP1 [3] |
| --- | --- | --- | --- |
| ET-1: endothelin 1, cytokine (CSCSSLMDKECVYFCHLDIIW; ends and bridges not checked; cysteine pairing not given here; UniProt P05305 53-73, looked up) | did not further promote | about 50% | did not further accelerate |
| FGF-8: fibroblast growth factor 8, cytokine (protein, UniProt P55075 23-233, looked up) Fibroblast growth factor 8: QEGPGRGPALGRELASLFRAGREPQGVSQQHVREQSLVTDQLSRRLIRTYQLYSRTSGKHVQVLANKRINAMAEDGDPFAKLIVETDTFGSRVRVRGAETGLYICMNKKGKLIAKSNGKGKDCVFTEIVLENNYTALQNAKYEGWYMAFTRKGRPRKGSKTRQHQREVHFMKRLPRGHHTTEQSLRFEFLNYPPFTRSLRGSQRTWAPEPR | did not further promote | about 50% | did not further accelerate |
| midkine: cytokine, amino acid sequence SEQ ID NO:68 (protein, listed as Homo sapiens, CDS (1)..(432)) MQHRGFLLLTLLALLALTSAVAKKKDKVKKGGPGSECAEWAWGPCTPSSKDCGVGFREGTCGAQTQRIRCRVPCNWKKEFGADCKYKFENWGACDGGTGTKVRQGTLKKARYNAQCQETIRVTKPCTPKTKAKAKAKKGKGKD | did not further promote | about 50% | did not further accelerate |
| BMP4: bone morphogenic protein 4, cytokine (protein, UniProt P12644 293-408, looked up) Bone morphogenetic protein 4: SPKHHSQRARKKNKNCRRHSLYVDFSDVGWNDWIVAPPGYQAFYCHGDCPFPLADHLNSTNHAIVQTLVNSVNSSIPKACCVPTELSAISMLYLDEYDKVVLKNYQEMVVEGCGCR | did not further promote | about 50% | did not further accelerate |
